Results taken from patent US20130059773.

Target: recombinant PCNA (human PCNA cDNA, produced in E. coli from plasmid PETPCNA, purified)

B1: procaspase-9 (protein)
chain: MDEADRRLLRRCRLRLVEELQVDQLWDALLSRELFRPHMIEDIQRAGSGSRRDQARQLIIDLETRGSQALPLFISCLEDTGQDMLASFLRTNRQAAKLSKPTLENLTPVVLRPEIRKPEVLRPETPRPVDIGSGGFGDVGALESLRGNADLAYILSMEPCGHCLIINNVNFCRESGLRTRTGSNIDCEKLRRRFSSLHFMVEVKGDLTAKKMVLALLELAQQDHGALDCCVVVILSHGCQASHLQFPGAVYGTDGCPVSVEKIVNIFNGTSCPSLGGKPKLFFIQACGGEQKDHGFEVASTSPEDESPGSNPEPDATPFQEGLRTFDQLDAISSLPTPSDIFVSYSTFPGFVSWRDPKSGSWYVETLDDIFEQWAHSEDLQSLLLRVANAVSVKGIYKQMPGCFNFLRKKLFFKTS
- procaspase-9 cleavage in an in vitro activation assay (neutrophil cytosol, cytochrome c, dATP; western blot of caspase-9): when purified PCNA was added to the mixture, procaspase-9 cleavage was delayed, with persistent procaspase-9 (47 kDa) and diminished 37-kDa fragment detection
